Assay results reported in US20070059756A1, “Immunointeractive molecules and their uses in treating subjects suffering from Hev b 5 allergies” (priority 1999, published 2007).

Assays:
PBMC = assay: Primary culture PBMC proliferation (polyclonal response); assay type: cell-based, human; settings: primary cultures of PBMC
Protocol: Latex specific T cell lines were isolated using our well established methods for the generation of allergen specific oligoclonal T cell populations (O'Hehir et al., 1987). An initial primary culture was performed for each patient to determine the optimal concentration of LAL for stimulation. For this, peripheral blood mononuclear cells (PBMC) separated from heparinised venous blood by density centrifugation (2×10^5/well) were stimulated with LAL over a concentration range 0.03 to 100 μg/ml, with control cultures of PBMC alone or stimulated with tetanus toxoid. All cultures were maintained in complete medium (RPMI-1640, Gibco Life Technologies supplemented with 2 mmol/L L-glutamine, 100 IU/ml penicillin-streptomycin and 5% screened, heat inactivated human AB serum [Sigma]). […] Therefore, to generate T cell lines, PBMC (2.5×10^6/well) were stimulated for 1 week with LAL at a concentration of 20 μg/ml in 24-well tissue culture plates (Costar, USA). After 7 days, lymphoblasts (1×10^6/well) were restimulated for one week with LAL at a concentration of 20 μg/ml in the presence of an equal number of irradiated (3000 rad) autologous PBMC as antigen presenting cells (APC). On days 2 and 4, cultures were supplemented with Lymphocult-T (5% v/v; Biotest Folex, Germany) and fresh medium. […]

[1] = Immune response of mice immunised with rHev b 5/MBP (serum ELISA); assay type: in vivo, BALB/c mice; settings: 20 μg/injection IP; serum ELISA against rHev b 5/MBP, MBP and NAL
Protocol: Monoclonal antibody production was carried out based on the method of Köhler and Milstein (Köhler et al., 1975) according to established protocols (Goding, 1996). Six to 8 week old female BALB/c mice were immunised intraperitoneally (IP) with 20 μg/injection of rHev b 5/MBP diluted in 200 μl of phosphate buffered saline (PBS). The first injection was given with an equal volume (200 μl) of Complete Freund's Adjuvant (Sigma, USA), and the second with 200 μl of Incomplete Freund's Adjuvant (Sigma, USA). The subsequent 4 immunisations were given in phosphate buffered saline (PBS) alone. The initial 2 immunisations were given at a 2 weekly interval; the remainder were given at monthly intervals, with 100 μl of whole blood being taken before the first immunisation and at 5 days following each immunisation (except for the first) to monitor the immune response. The blood was then centrifuged, the serum removed, and aliquotted at −20° C. for later analysis using enzyme linked immunosorbent assay (ELISA) as below. The final booster immunisation of 20 μg of rHev b 5/MBP in 200 μl PBS was given IP 3 days before the mouse was humanly killed and the spleen aseptically removed, macerated and then fused with 10^7 murine myeloma cells (X-63.Ag8 cell line, generous gift of Professor Jim Goding). […] Colour development was then observed and the plate read at […]. […]

[2] = test system: latex specific T cell lines; assay: Oligoclonal T cell proliferation assay (3H-thymidine incorporation); assay type: cell-based, human; settings: for Oligoclonal proliferative response: antigen 10 μg/ml, 4 day cultures
Protocol: Latex specific T cell lines were isolated using our well established methods for the generation of allergen specific oligoclonal T cell populations (O'Hehir et al., 1987). An initial primary culture was performed for each patient to determine the optimal concentration of LAL for stimulation. For this, peripheral blood mononuclear cells (PBMC) separated from heparinised venous blood by density centrifugation (2×10^5/well) were stimulated with LAL over a concentration range 0.03 to 100 μg/ml, with control cultures of PBMC alone or stimulated with tetanus toxoid. All cultures were maintained in complete medium (RPMI-1640, Gibco Life Technologies supplemented with 2 mmol/L L-glutamine, 100 IU/ml penicillin-streptomycin and 5% screened, heat inactivated human AB serum [Sigma]). […] Therefore, to generate T cell lines, PBMC (2.5×10^6/well) were stimulated for 1 week with LAL at a concentration of 20 μg/ml in 24-well tissue culture plates (Costar, USA). After 7 days, lymphoblasts (1×10^6/well) were restimulated for one week with LAL at a concentration of 20 μg/ml in the presence of an equal number of irradiated (3000 rad) autologous PBMC as antigen presenting cells (APC). On days 2 and 4, cultures were supplemented with Lymphocult-T (5% v/v; Biotest Folex, Germany) and fresh medium. At the end of the second week, lymphoblasts were restimulated for one week with rhev b 5/MBP at a concentration of 20 μg/ml as described above. Oligoclonal T cells were recovered, washed and tested in proliferation and cytokine assays (as described below) either fresh or after cryopreservation in liquid nitrogen. We have previously shown that CD4^+ T cells are preferentially expanded in these cultures.
Oligoclonal T cell blasts (5×10^4) were incubated in 96-well round bottom plates (Linbro, ICN Biomedicals, USA) in triplicate with equal numbers of irradiated APC in the presence of LAL at concentrations ranging from 0.03-100 μg/ml, rHev b 5/MBP (10 and 20 μg/ml), MBP (10 and 20 μg/ml), overlapping peptides of the Hev b 5 sequence (10 and 30 μg/ml), Lymphocult-T (10 IU/ml) or PHA (3 μg/ml). Cultures of T cells and APC in the absence of antigen, T cells alone and APC alone in the absence of antigen were included as controls. After 72 hours cultures were pulsed with 1 μCi of ^3H-thymidine (^3HTdR; Du Pont, NEN) and harvested 12-16 hours later. Proliferation as correlated with ^3HTdR incorporation was measured by liquid scintillation spectroscopy. Results are expressed as mean counts per minute (cpm) for triplicate cultures with standard deviation (SD; ±20% for all experiments).

serum IgE = assay: Dot immunoblot of patient serum IgE reactivity; assay type: binding, human; settings: sera of latex allergic patients 1-6
Protocol: Patient serum IgE reactivity to latex allergens was analysed by dot immunoblots. LAL (25 μg), rHev b 5/MBP (7 μg) and MBP (4.5 μg) were applied side by side on a nitrocellulose membrane (Schleichner and Schuell, Germany) in a 5 μl volume and allowed to soak in. The amount of MBP was estimated to be equivalent to that in the rHev b 5/MBP aliquot. The membrane was then blocked, incubated in patient sera and IgE binding detected according to our established protocols (Suphioglu et al., 1993). Briefly, the blots were blocked in 10% w/v skim milk powder in PBS and washed once in PBS containing 0.2% v/v Tween 20 and twice in PBS alone. Blots were then incubated in patients' sera (diluted 1:4 in PBS/0.5% BSA) overnight at room temperature with shaking before washing as described above. Finally, IgE antibody binding was detected by incubation in rabbit anti-human IgE (Dako, Denmark) followed by horse radish peroxidase-labelled anti-rabbit antibodies (Promega, USA), washing in between, and developing in the substrate 4-chloro-1-napthol (Sigma) after the final wash.

[3] = test system: house dust mite specific three-week T cell line; assay type: cell-based
Protocol: Mitogenicity of latex antigens was excluded by testing the ability of LAL, rHev b 5/mBP and Hev b 5 peptides to stimulate a house dust mite specific three-week T cell line. No reactivity to latex allergens was observed (data not shown). Toxicity was assessed by coculturing the same antigens with house dust mite specific T cells in the presence of Lymphocult-T at 10 IU/ml.

B1: rHev b 5/MBP: recombinant Hev b 5 as maltose binding protein (MBP) fusion protein (protein)
chain: ASVEVESAATALPKNETPEVTKAEETKTEEPAAPPASEQETADATPEKEEPTAAPAEPEAPAPETEKAEEVEKIEKTEEPAPEADQTTPEEKPAEPEPVAEEEPKHETKETETEAPAAPAEGEKPAEEEKPITEAAETATTEVPVEKTEE
modifications: left off: large carriers; small tags and cut ends
polyclonal PBMC response (in words) (PBMC): considerably less than those to LAL
immune response of immunised mice [1]: strong polyclonal immune response
Oligoclonal proliferative response ([2]; P1 T cell line): 9.0 counts per minute × 10^−3
Oligoclonal proliferative response ([2]; P2 T cell line): 5.7 counts per minute × 10^−3
oligoclonal proliferative response (in words) ([2]; three-week latex specific T cell lines): significantly higher than those of MBP alone
serum IgE reactivity (serum IgE): patients 1, 2, 3, 4 and 5 showed IgE reactivity
mitogenicity: stimulation of house dust mite specific T cell line [3]: No reactivity
